Measured values reported in the supplement of paper PMC10567573.

B1: DLC1 (parent)
chain: AEVVKIRDSFSNQNTETKDTKSR

Variants of: B1
Test: protein stability index of a GFP-peptide fusion (GPS, HEK-293T) (PSI 1-6); higher = more stable
Conditions: c terminus: native
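Also: lentivirally expressed fusions sorted by FACS into six bins by GFP to DsRed ratio, PSI derived from sequencing read proportions per bin multiplied by bin number.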

| Variant | protein stability index |
| --- | --- |
| AEVVKIRDSFSSQNTETKDTKSR [N12S] | 1.86 |
| AEVVKIRDSFSTQNTETKDTKSR [N12T] | 2.23 |
| AEVVKIRDSFSAQNTETKDTKSR [N12A] | 2.33 |
| AEVVKIRDSFSNQKTETKDTKSR [N14K] | 2.44 |
| AEVVKIRDSFSNQGTETKDTKSR [N14G] | 2.08 |
| AEVVKIRDSFSNQSTETKDTKSR [N14S] | 1.96 |
| AEVVKIRDSFSNQETETKDTKSR [N14E] | 2.24 |
| AEVVKIRDSFSNQNTETKCTKSR [D19C] | 1.83 |
| AEVVKIRDSFSNQNTETKVTKSR [D19V] | 1.91 |
| AEVVKIRDSFSNQNTETKQTKSR [D19Q] | 1.99 |
| AEVVKIRDSFSNQNTETKTTKSR [D19T] | 3.09 |
| AEVVKIRDSFSNQNTETKNTKSR [D19N] | 3.63 |
| AEVVKIRDSFSNQNTETKGTKSR [D19G] | 2 |
| AEVVKIRDSFSNQNTETKHTKSR [D19H] | 2.07 |
| AEVVDIRDSFSNQNTETKDTKSR [K5D] | 3.23 |
| AEVVTIRDSFSNQNTETKDTKSR [K5T] | 2.88 |
| AEVVKIRDSFSNQNTELKDTKSR [T17L] | 2.34 |
| AEVVKIRDSFSNQNTEAKDTKSR [T17A] | 2.22 |
| AEVVKIRDSFSNQNTECKDTKSR [T17C] | 2.11 |
| AEVVKIRDSFSNQNTETKDTGSR [K21G] | 5.44 |
| AEVVKIRDSFSNQNTETKDTVSR [K21V] | 4.89 |
| AEVVKIRDSFSNQNTETKDTLSR [K21L] | 4.19 |
| AEVVKIRDSFSNQNTETKDTNSR [K21N] | 5.59 |
| AEVVKIRDSFSNQNTETKDTSSR [K21S] | 5.01 |

| Variant | protein stability index |
| --- | --- |
| AFVVKIRDSFSNQNTETKDTKSR [E2F] | 2.11 |
| ANVVKIRDSFSNQNTETKDTKSR [E2N] | 2.04 |
| AHVVKIRDSFSNQNTETKDTKSR [E2H] | 2.02 |
| AAVVKIRDSFSNQNTETKDTKSR [E2A] | 1.88 |
| AEVVKIRDSFSNQNTETVDTKSR [K18V] | 2.32 |
| AEVVKIRDSFSNQNTETLDTKSR [K18L] | 3.07 |
| AEVVKIRDSFSNQNTETSDTKSR [K18S] | 1.98 |
| AEVVKIRDSFSNQNTETHDTKSR [K18H] | 2.98 |
| AEVVKIRDSFSNQNTETYDTKSR [K18Y] | 1.94 |
| AEVVKIRDSFSNQNTETIDTKSR [K18I] | 2.26 |
| CEVVKIRDSFSNQNTETKDTKSR [A1C] | 2.19 |
| HEVVKIRDSFSNQNTETKDTKSR [A1H] | 2.51 |
| VEVVKIRDSFSNQNTETKDTKSR [A1V] | 1.92 |
| YEVVKIRDSFSNQNTETKDTKSR [A1Y] | 1.79 |
| AEVVKIRDSFSNQNTETKDTKYR [S22Y] | 3.36 |
| AEVVKIRDSFSNQNTETKDTKNR [S22N] | 2.88 |
| AEVVKIRDSFSNQNTETKDTKER [S22E] | 3.8 |
| AEVVKIRDSFSNQNTETKDTKQR [S22Q] | 3.03 |
| AEVVKIRDSFSNQNTETKDTKSG [R23G] | 4.84 |
| AEVVKIRDSFSNQNTETKDTKSN [R23N] | 5.26 |
| AEVVKIRDSFSNQNTETKDTKSM [R23M] | 5.38 |
| AEVVKIRDSFSNQNTETKDTKSE [R23E] | 5.85 |
| AEVVKIRDSFSNQNTFTKDTKSR [E16F] | 3.13 |
| AEVVKIRDSFSNQNTDTKDTKSR [E16D] | 3.35 |

| Variant | protein stability index |
| --- | --- |
| AEVVKIRDSFSNQNTTTKDTKSR [E16T] | 2.06 |
| AEVVKIRDSFSNQNTQTKDTKSR [E16Q] | 3.17 |
| AEVVKIRDSFSNQNTATKDTKSR [E16A] | 2.43 |
| AEVVKIRDSFSNQNTSTKDTKSR [E16S] | 1.9 |
| AEVVKIRDSFSNQNTVTKDTKSR [E16V] | 3.04 |
| AEVVKIRDSFSNQNTNTKDTKSR [E16N] | 2.27 |
| AEVVKIRDSFSNANTETKDTKSR [Q13A] | 2.41 |
| AEVVKIRDSFSNMNTETKDTKSR [Q13M] | 1.94 |
| AEVVKIRDSFSNNNTETKDTKSR [Q13N] | 2.56 |
| AEVVKIRDSFSNFNTETKDTKSR [Q13F] | 2.26 |
| AEVIKIRDSFSNQNTETKDTKSR [V4I] | 1.98 |
| AEVCKIRDSFSNQNTETKDTKSR [V4C] | 2.3 |
| AEVNKIRDSFSNQNTETKDTKSR [V4N] | 2.48 |
| AEVHKIRDSFSNQNTETKDTKSR [V4H] | 2.14 |
| AEVLKIRDSFSNQNTETKDTKSR [V4L] | 4.87 |
| AEVFKIRDSFSNQNTETKDTKSR [V4F] | 2.89 |
| AEVAKIRDSFSNQNTETKDTKSR [V4A] | 1.73 |
| AEVVKIRDSFMNQNTETKDTKSR [S11M] | 1.46 |
| AEVVKIRDSFVNQNTETKDTKSR [S11V] | 2.35 |
| AEVVKIRDSFYNQNTETKDTKSR [S11Y] | 2.65 |
| AEVVKIRDSFHNQNTETKDTKSR [S11H] | 2.61 |
| AEVVKIRDSFTNQNTETKDTKSR [S11T] | 2.48 |
| AEVVKRRDSFSNQNTETKDTKSR [I6R] | 3.18 |
| AEVVKCRDSFSNQNTETKDTKSR [I6C] | 2.43 |

| Variant | protein stability index |
| --- | --- |
| AEVVKDRDSFSNQNTETKDTKSR [I6D] | 2.79 |
| AEVVKIRDSKSNQNTETKDTKSR [F10K] | 4.18 |
| AEVVKIRDSRSNQNTETKDTKSR [F10R] | 4.5 |
| AEVVKIRDSCSNQNTETKDTKSR [F10C] | 2.54 |
| AEVVKIRDSYSNQNTETKDTKSR [F10Y] | 2.53 |
| AEVVKIRDSHSNQNTETKDTKSR [F10H] | 3.71 |
| AEVVKIRDSISNQNTETKDTKSR [F10I] | 2.32 |
| AEVVKIRDSFSNQNPETKDTKSR [T15P] | 2.08 |
| AEVVKIRDSFSNQNFETKDTKSR [T15F] | 2.36 |
| AEVVKIRDSFSNQNMETKDTKSR [T15M] | 1.86 |
| AEVVKIRDSFSNQNYETKDTKSR [T15Y] | 1.62 |
| AEEVKIRDSFSNQNTETKDTKSR [V3E] | 2.12 |
| AESVKIRDSFSNQNTETKDTKSR [V3S] | 1.95 |
| AEFVKIRDSFSNQNTETKDTKSR [V3F] | 2.09 |
| AEYVKIRDSFSNQNTETKDTKSR [V3Y] | 1.7 |
| AETVKIRDSFSNQNTETKDTKSR [V3T] | 2.19 |
| AEWVKIRDSFSNQNTETKDTKSR [V3W] | 2.53 |
| AEVVKINDSFSNQNTETKDTKSR [R7N] | 3.31 |
| AEVVKIMDSFSNQNTETKDTKSR [R7M] | 3.19 |
| AEVVKILDSFSNQNTETKDTKSR [R7L] | 3.01 |
| AEVVKIEDSFSNQNTETKDTKSR [R7E] | 2.99 |
| AEVVKIRQSFSNQNTETKDTKSR [D8Q] | 1.26 |
| AEVVKIRESFSNQNTETKDTKSR [D8E] | 2.92 |
